Results published in patent US20230257435A1, “Wound Healing Composition and Uses Thereof” (AGENCY FOR SCIENCE, TECHNOLOGY AND RESEARCH, priority 2020, published 2023).

Experiments:
[1] = system: phosphorylated myosin light chain (pMLC); experiment: Actomyosin cables / pMLC activation after wound scratch; type: cell-based, human
Protocol: Indicated cells post-manipulation were washed twice with cold Phosphate buffered saline (PBS) and lysed with cold 1% NP-40 lysis buffer supplemented with 1× protease inhibitor cocktail (Roche Applied Biosciences) for 15 mins at 4° C. The cell lysate was centrifuged at 13,000 rpm for 15 min. This was followed by protein estimation using Bradford reagent. Subsequently, […] of total protein was mixed with an equal volume of 2× Laemmli sample buffer and heated at 95° C. for 5 mins. This was followed by resolution with SDS-PAGE gel. The resolved proteins were transferred onto nitrocellulose membrane and blocked in 5% skimmed milk reconstituted in 1×PBS containing 0.1% Tween-20, and probed overnight with the respective primary antibody. The membrane was then washed with 1×PBS supplemented with 0.1% Tween-20: three times at 15 min intervals. This was followed by 1 h incubation in conjugated horseradish peroxidase HRP secondary antibody (Santa Cruz Biotechnology). Post-incubation, the blot was again washed three times as above and then overlaid with enhanced chemiluminescence (ECL) substrate (Pierce/Bio-Rad) and visualized on X-ray film by image processor or digitally by Chemidoc analyzer (Bio-Rad). The density of the various bands was quantified using the Image-J software.
Cells were cultured on eight-well chamber slides or coverslips over-night. Cells were then washed twice with PBS and fixed for 15 min with 4% paraformaldehyde. Subsequently, the cells were permeabilized for 15 min with 0.1% Triton X in Phosphate buffered saline containing 1 mM Ca^+2 and 1 mM Mg^+2 (PBSCM) at room temperature. The permeabilized cells were incubated with indicated antibodies in fluorescent dilution buffer (FDB) for 1-2 h at RT or overnight at 4° C., followed by 5 washes with PBSCM and incubation with secondary antibody; Alexa Fluor (Thermo Fisher Scientific) for 1 h at RT. Slides were again washed five times with PBSCM and mounted with Vectashield medium containing DAPI. The stained cells were then imaged by a Zeiss confocal microscope. The images were processed and analyzed by Zen blue software. Intensity measurements were acquired using tool selection parameter in image analysis within the Zen blue software.
A confluent monolayer of control and Agrin depleted cells in a 6-well plate was subjected to a unidirectional scratch using a 20 μl pipette tip. This was followed by washing with 1×PBS at room temperature and incubation in complete culture media at 37° C. and 5% CO2 with or without sAgrin used as indicated. Phase contrast images of the wound area were taken periodically at the indicated time-points. For some wound-healing migration assays, keratinocytes were cultured on either soft or stiff substrates within a stencil barrier (Nalge Nunc., Inc) for 18 h. Upon removal of the barrier, the cells were allowed to migrate and imaged using an Axiovert 200 inverted microscope at indicated time-points.

HaCaT cells = experiment: Traction force microscopy and PIV of collective migration; type: cell-based, human
Protocol: Substrate preparation—Two-part silicone elastomer, DOWSIL CY52-276 (Dow Inc.), is first mixed thoroughly in a 1:1 weight ratio. The mixture is then poured into a 35 mm glass-bottom culture dish (iwaki 3930-035, Asahi Techno Glass Corporation, Japan) placed on a level surface, to a thickness of ˜500 μm. After pre-curing overnight, the silicone coated culture dish is further baked for 2 hours at 80° C. to fully cure. To maximize subsequent microsphere attachment, the silicone film is pre-treated with (3-aminopropyl) triethoxysilane (A3648, Sigma-Aldrich). To silanize, a 1 ml solution containing 96% v/v, 2% v/v APTES and 1% v/v acetic acid (A6283, Sigma Aldrich) is added to the glass-bottom culture dish, covering the whole silicone film, and left for 10 minutes to react. The silicone film is then twice rinsed with 96% v/v ethanol and followed by a quick dip in Milli-Q water to remove all the solution: removing solution from the film this way is preferred over blow-drying with nitrogen gas because the latter may introduce dust to the surface which subsequently affects the uniformity of attached microsphere distribution. Following this, the culture-dish is baked at 80° C. for another 2 hours to promote siloxane bond formation. For the physisorption of fluorescent latex microspheres on to the silicone film, 6 μl of 100 nm orange fluorescent (540/560) carboxylate-modified microspheres (F8800, ThermoFisher Scientific) is first diluted in 10 ml of Milli-Q water and sonicated for 10 minutes. The diluted microspheres are then passed through a 0.22 μm filter directly into a 15 ml falcon tube containing 500 μl of 500 mM MES buffer, pH 6.0 (M3671, Sigma Aldrich). The microspheres are then sonicated again for 10 minutes before being added to cover the APTES silanized silicone film within the culture dish previously prepared. The solution was left for 5 minutes to allow the microspheres to attach. […] The stiffness of silicone substrates used for TFM were determined by atomic force microscopy as per previously established protocols as described in the section below. […]

[2] = Agrin depleted cells supplemented with sAgrin

B1: sAgrin: C-terminus recombinant Agrin fragment containing 8 amino acid 'Z8' insert and LG3 domain (SEQ ID NO: 7), His-tagged, expressed in E. coli (protein)
chain: DTLAFDGRTFVEYLNAVTESELANEIPVEKALQSNHFELSLRTEATQGLVLWSGKATERADYVALAIVDGHLQLSYNLGSQPVVLRSTVPVNTNRWLRVVAHREQREGSLQVGNEAPVTGSSPLGATQLDTDGALWLGGLPELPVGPALPKAYGTGFVGCLRDVVVGRHPLHLLEDAVTKPELRPCPTP
modifications: His tag
- pMLC recruitment to wound edges ([1]; 10 μg/ml sAgrin 18 h): strong recruitment of pMLC to wound edges forming stable actomyosin cables
- actomyosin cables in Agrin deprived cells ([1]; 10 μg/ml sAgrin 18 h, within 4 h post-wounding): restored
- actomyosin cable network in MMP12 suppressed cells ([1]; MMP12 siRNA, 10 μg/ml sAgrin 18 h): did not restore actomyosin cable network
- pMLC levels in MMP12 depleted keratinocytes ([1]; within 2 h post-wounding): unable to rescue the severely diminished pMLC levels
- pMLC activation in Agrin depleted cells ([1]; within 2 h post-wounding, sAgrin pre-treatment): restored
- traction force at migrating leading edge of MMP12 depleted keratinocytes (HaCaT cells; 10 μg/ml sAgrin 18-24 h): failed to induce sufficient traction force
- collective traction stress at the leading front (HaCaT cells; [2]): significantly enhanced
- coordinated velocity fields and fluidic collective migration (PIV) (HaCaT cells; [2]): significantly enhanced
